Data reported in patent publication US7662583B2, “Bioreactor containing cells expressing glycosyltransferase nucleic acids isolatable from Arabidopsis” (The University of York, priority 2003, dated 2010).

Assays:
[1] = Solubility of quercetin under buffer conditions used; assay type: physicochemical; settings: buffer conditions used in the fermenter
Procedure: In order to explore the potential of the whole-cell biocatalysts for large-scale production of glucosides in the absence of added UDP-glucose, transformed bacterial cells were cultured in a fermenter. This process enabled conditions to be controlled tightly throughout the production cycle and a direct comparison to be made of the efficiency of conversion of whole-cell UGT biocatalysis in a simple culture flask and an optimised fermenter system. UGT73B3 was chosen for the analysis, since preliminary experiments (Table 2) had shown formation of a single product, the 3-O-glucoside, at levels of 8.96 μg/ml following 24 h incubation. […] The Figure also illustrates the final level of glucoside was much higher than the soluble aglycone at time 0 h.

[2] = UGT enzyme reaction with quercetin (recombinant UGTs, HPLC); assay type: biochemical, Arabidopsis; settings: 0.5 mM quercetin, 5 mM UDP-glucose, 30° C.
Summary of the method: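 Recombinant Arabidopsis UGTs (2 μg) incubated with 0.5 mM quercetin and 5 mM UDP-glucose in 100 mM Tris-HCl pH 7.0 at 30 °C for 1 h. Quercetin glucosides separated from aglycone by reverse-phase C18 HPLC (acetonitrile gradient, 0.1% TFA), detected at 370 nm.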

[3] = Whole-cell biocatalyst assay, E. coli expressing UGT in culture medium; assay type: cell-based; settings: E. coli, 2x YT medium, 0.1 mM IPTG, 0.1 mM quercetin, 24 h, no added UDP-glucose
Procedure: FIG. 14 Whole-cell biocatalyst assay using UGT71C1. E. coli cells expressing recombinant were used in the biocatalyst assay. After incubation with 0.1 mM quercetin and 0.1 mM IPTG, cells were collected by centrifugation, extracted with 80% methanol and both the cell extracts (pellet) and culture medium (supernatant) were analysed using HPLC. (A) Changes in the combined amounts of aglycone/glucoside over a time-course of 0-48 h. (B) Changes in the level of different glucosides and aglycone in the culture medium over the same time-course.
Using the foundation established in the preceding example, we went on to investigate the potential of E. coli expressing plant UGTs as whole-cell biocatalysts to synthesise glucosides of quercetin. In the first instance, we used E. coli grown in 75 ml of standard culture medium. […] Table 2 describes results in which 7 different UGTs are expressed in E. coli and the identity and quantity of different glucosides recovered in the medium were analysed by HPLC. […] There was considerable variation in the level of different glucosides synthesised by the cells, although even under these non-optimised conditions, each of the four monoglucosides and two di-O-glucosides could be formed.

[4] = Whole-cell bioreactor assay in fermentor system; assay type: cell-based, E. coli
Procedure: A 6 L glass autoclavable fermentor system (Applikon Biotechnology Ltd.) was used for large-scale analysis of UGT whole-cell biocatalysts. E. coli BL21 overnight culture (40 ml) expressing UGT was transferred into the fermentor system containing 2 L of LB medium previously equilibrated at 30° C., pH 7.4. The dissolved O2 level was maintained at 95% for 1 h and was decreased to 60% throughout the remaining process. When the culture reached an optical density at 0.2, the temperature was lowered to 20° C. 0.1 mM of isopropyl-1-thio-β-D-galactopyranoside and 2 g of quercetin were added after the bacterial culture reached an optical density at 0.6. Samples were harvested at intervals and the bacterial cells were removed by centrifugation. The resulting supernatant fractions (culture medium) were analysed with HPLC.
In order to explore the potential of the whole-cell biocatalysts for large-scale production of glucosides in the absence of added UDP-glucose, transformed bacterial cells were cultured in a fermenter. This process enabled conditions to be controlled tightly throughout the production cycle and a direct comparison to be made of the efficiency of conversion of whole-cell UGT biocatalysis in a simple culture flask and an optimised fermenter system. […]

| Molecule | solubility [1] | Specific activity (nkat/mg protein) 3-O-glc ([2]; quercetin glucosylated at 3-OH) [nkat/mg protein] | Specific activity (nkat/mg protein) 3′-O-glc ([2]; quercetin glucosylated at 3′-OH) | Specific activity (nkat/mg protein) 4′-O-glc ([2]; quercetin glucosylated at 4′-OH) | Specific activity (nkat/mg protein) 7-O-glc ([2]; quercetin glucosylated at 7-OH) | Culture medium (μg/ml in supernatant) 3-O-glc [3] [µg/mL] | yield of 3-O-glucoside, fermenter versus culture flask ([4]; 99.3 μg/ml at 20 h versus 8.96 μg/ml at 24 h) [fold] | yield of 3-O-glucoside in the culture ([4]; fermenter system, 20 h) [µg/mL] |
| --- | --- | --- | --- | --- | --- | --- | --- | --- |
| O=c1c(O)c(-c2ccc(O)c(O)c2)oc2cc(O)cc(O)c12 [Quercetin, quercetin] | relatively insoluble |  |  |  |  |  |  |  |
| UGT73B3: Arabidopsis recombinant glycosyltransferase (protein, UniProt Q8W491 1-481, looked up) UDP-glycosyltransferase 73B3: MSSDPHRKLHVVFFPFMAYGHMIPTLDMAKLFSSRGAKSTILTTPLNSKIFQKPIERFKNLNPSFEIDIQIFDFPCVDLGLPEGCENVDFFTSNNNDDRQYLTLKFFKSTRFFKDQLEKLLETTRPDCLIADMFFPWATEAAEKFNVPRLVFHGTGYFSLCSEYCIRVHNPQNIVASRYEPFVIPDLPGNIVITQEQIADRDEESEMGKFMIEVKESDVKSSGVIVNSFYELEPDYADFYKSVVLKRAWHIGPLSVYNRGFEEKAERGKKASINEVECLKWLDSKKPDSVIYISFGSVACFKNEQLFEIAAGLETSGANFIWVVRKNIGIEKEEWLPEGFEERVKGKGMIIRGWAPQVLILDHQATCGFVTHCGWNSLLEGVAAGLPMVTWPVAAEQFYNEKLVTQVLRTGVSVGAKKNVRTTGDFISREKVVKAVREVLVGEEADERRERAKKLAEMAKAAVEGGSSFNDLNSFIEEFTS |  | 1.57 | — (Activity lower than 0.02 nkat/mg protein has been considered as trace activity and is not shown in the Table.) | — (Activity lower than 0.02 nkat/mg protein has been considered as trace activity and is not shown in the Table.) | — (Activity lower than 0.02 nkat/mg protein has been considered as trace activity and is not shown in the Table.) | 8.96 | 10 | 99.3 |
